Test results as given in the supplement of paper PMC7125110.
± gives the standard error. This sample holds only a part of the variants without activity.

B1: glmS ribozyme (parent)
chain: AUAAAAGCGCCAGAACUACAGAAAUGUAGUUGACGAGGAGGAGGUUUAUCGAAUUUUCGGCGGAUGCCUCCAAA

Columns and labels:
Details in all cases: with glucosamine-6-phosphate
glucosamine-6-phosphate [1] = variants of: B1; test: self-cleavage kobs at 40 uM GlcN6P; higher = faster cleavage; RNA array
Method in brief: (§1)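 Ribozyme variants carrying barcodes were transcribed in situ on sequenced MiSeq chips by E. coli RNA polymerase and tracked at 37 °C with a hybridised Cy3 probe. They were exposed to 40 μM to 10 mM glucosamine-6-phosphate in HEPES/KCl/Mg(OAc)2 buffer. kobs came from exponential decay fits of normalised per-tile medians, and kcat and KM from weighted Michaelis–Menten fits.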

glucosamine-6-phosphate [2] = variants of: B1; test: self-cleavage kobs at 2500 uM GlcN6P; higher = faster cleavage; RNA array
Method in brief: as §1

glucosamine-6-phosphate [3] = variants of: B1; test: self-cleavage kobs at 10000 uM GlcN6P; higher = faster cleavage; RNA array
Method in brief: as §1

glucosamine-6-phosphate [4] = variants of: B1; test: self-cleavage kobs at 640 uM GlcN6P; higher = faster cleavage; RNA array
Method in brief: as §1

glucosamine-6-phosphate [5] = variants of: B1; test: self-cleavage kobs at 160 uM GlcN6P; higher = faster cleavage; RNA array
Method in brief: as §1

| Variant | self-cleavage kobs at 40 uM GlcN6P (glucosamine-6-phosphate [1]) | self-cleavage kobs at 2500 uM GlcN6P (glucosamine-6-phosphate [2]) | self-cleavage kobs at 10000 uM GlcN6P (glucosamine-6-phosphate [3]) | self-cleavage kobs at 640 uM GlcN6P (glucosamine-6-phosphate [4]) | self-cleavage kobs at 160 uM GlcN6P (glucosamine-6-phosphate [5]) |
| --- | --- | --- | --- | --- | --- |
| A33U G38C G40C U65A C70G | < 1e-05 s⁻¹ | < 1e-05 s⁻¹ | < 1e-05 s⁻¹ |  |  |
| G9U G44C A64C | < 1e-05 s⁻¹ |  | < 1e-05 s⁻¹ |  |  |
| G13A G51A G62C | < 1e-05 s⁻¹ |  |  |  |  |
| G7A G13C G38A | < 1e-05 s⁻¹ | < 1e-05 s⁻¹ |  |  |  |
| A6U G44C C50A | < 1e-05 s⁻¹ |  |  |  |  |
| C10U G32A A39C U57C C61G C68G | < 1e-05 s⁻¹ |  | < 1e-05 s⁻¹ | < 1e-05 s⁻¹ |  |
| G43A A64U C67U | < 1e-05 s⁻¹ | < 1e-05 s⁻¹ | < 1e-05 s⁻¹ | < 1e-05 s⁻¹ |  |
| A12C G38C U45A | < 1e-05 s⁻¹ |  | < 1e-05 s⁻¹ |  |  |
| A6C C8U A15G | < 1e-05 s⁻¹ |  | < 1e-05 s⁻¹ |  |  |
| G13A A15U G41U C50A U54A U57C | < 1e-05 s⁻¹ |  | < 1e-05 s⁻¹ |  |  |
| C10G G29U U31C A36U C68A C71U | < 1e-05 s⁻¹ |  |  |  |  |
| G60A G62C | < 1e-05 s⁻¹ | < 1e-05 s⁻¹ |  |  | < 1e-05 s⁻¹ |
| C11G A14G A39U | < 1e-05 s⁻¹ |  |  |  |  |
| G29C G41C G44A G60A | < 1e-05 s⁻¹ |  | < 1e-05 s⁻¹ |  |  |
| A12U G38A G41A A64G | < 1e-05 s⁻¹ |  | < 1e-05 s⁻¹ |  |  |
| C8G | < 1e-05 s⁻¹ | < 1e-05 s⁻¹ | < 1e-05 s⁻¹ | < 1e-05 s⁻¹ | < 1e-05 s⁻¹ |
| C16A C61U | < 1e-05 s⁻¹ | < 1e-05 s⁻¹ | < 1e-05 s⁻¹ | < 1e-05 s⁻¹ | < 1e-05 s⁻¹ |
| A48C U49C C61G | < 1e-05 s⁻¹ | < 1e-05 s⁻¹ | < 1e-05 s⁻¹ |  | < 1e-05 s⁻¹ |
| U54A G63A | < 1e-05 s⁻¹ |  |  | < 1e-05 s⁻¹ | < 1e-05 s⁻¹ |
| U54A G63C | < 1e-05 s⁻¹ |  | < 1e-05 s⁻¹ |  |  |
| C8A G62A | < 1e-05 s⁻¹ |  | < 1e-05 s⁻¹ | < 1e-05 s⁻¹ | < 1e-05 s⁻¹ |
| G41U C70G | 0.00157 ± 0.00018 s⁻¹ | 0.00944 ± 0.0019 s⁻¹ | 0.0513 ± 0.014 s⁻¹ | 0.00612 ± 0.00092 s⁻¹ | 0.00262 ± 0.00038 s⁻¹ |
| A6G G29U G35A C50G G51U G66U C71U | < 1e-05 s⁻¹ |  |  |  |  |
| A6U G9A A33G C68U C71G | 0.000234 ± 0.0001 s⁻¹ |  | 4.24e-05 ± 1.8e-05 s⁻¹ |  |  |

| Variant | self-cleavage kobs at 40 uM GlcN6P (glucosamine-6-phosphate [1]) | self-cleavage kobs at 2500 uM GlcN6P (glucosamine-6-phosphate [2]) | self-cleavage kobs at 10000 uM GlcN6P (glucosamine-6-phosphate [3]) | self-cleavage kobs at 640 uM GlcN6P (glucosamine-6-phosphate [4]) | self-cleavage kobs at 160 uM GlcN6P (glucosamine-6-phosphate [5]) |
| --- | --- | --- | --- | --- | --- |
| A73U | 0.00108 ± 0.00026 s⁻¹ | 0.00477 ± 0.0019 s⁻¹ | 0.0245 ± 0.0093 s⁻¹ |  |  |
| G38A G41U U46C | < 1e-05 s⁻¹ |  | < 1e-05 s⁻¹ |  |  |
| C11U A12U G13U A64C | < 1e-05 s⁻¹ |  | < 1e-05 s⁻¹ |  |  |
| C10A U45G G63U | < 1e-05 s⁻¹ |  | < 1e-05 s⁻¹ |  |  |
| G7C C16G A52G | < 1e-05 s⁻¹ |  | < 1e-05 s⁻¹ | < 1e-05 s⁻¹ |  |
| G44A U56C | < 1e-05 s⁻¹ |  | < 1e-05 s⁻¹ |  | < 1e-05 s⁻¹ |
| A14G A48C C68A | < 1e-05 s⁻¹ |  | < 1e-05 s⁻¹ |  | < 1e-05 s⁻¹ |
| C16U A53C U54A | 0.000103 ± 2.4e-05 s⁻¹ |  | 0.00236 ± 0.00047 s⁻¹ |  |  |
| G41A U46C | < 1e-05 s⁻¹ |  | 4.37e-05 ± 1.2e-05 s⁻¹ |  |  |
| A36G G43A U54G | < 1e-05 s⁻¹ | < 1e-05 s⁻¹ | < 1e-05 s⁻¹ | < 1e-05 s⁻¹ |  |
| G7U C11G A12C A42U | < 1e-05 s⁻¹ | < 1e-05 s⁻¹ |  |  |  |
| G7A A36C U54G | < 1e-05 s⁻¹ |  | < 1e-05 s⁻¹ |  |  |
| A6C G9C | < 1e-05 s⁻¹ | < 1e-05 s⁻¹ | < 1e-05 s⁻¹ | < 1e-05 s⁻¹ | < 1e-05 s⁻¹ |
| A12C A36G | < 1e-05 s⁻¹ | < 1e-05 s⁻¹ | < 1e-05 s⁻¹ | < 1e-05 s⁻¹ | < 1e-05 s⁻¹ |
| G7C C16U U31A G41U | < 1e-05 s⁻¹ | < 1e-05 s⁻¹ | < 1e-05 s⁻¹ |  |  |
| A14G C19A A20G G21A G60A | < 1e-05 s⁻¹ |  |  |  |  |
| G66A U69A | 8.7e-05 ± 1.7e-05 s⁻¹ | 0.000595 ± 0.00011 s⁻¹ | 0.00178 ± 0.00037 s⁻¹ | 0.0005 ± 9.3e-05 s⁻¹ | 0.000185 ± 3.8e-05 s⁻¹ |
| C10G G13A U47G | < 1e-05 s⁻¹ |  |  |  |  |
| U46G G60C | < 1e-05 s⁻¹ | < 1e-05 s⁻¹ | < 1e-05 s⁻¹ | < 1e-05 s⁻¹ | < 1e-05 s⁻¹ |
| G7C G9C A15U | < 1e-05 s⁻¹ |  | < 1e-05 s⁻¹ |  |  |
| C34G G59A G60U | < 1e-05 s⁻¹ |  | < 1e-05 s⁻¹ | < 1e-05 s⁻¹ | < 1e-05 s⁻¹ |
| A64C G66C | < 1e-05 s⁻¹ |  |  | < 1e-05 s⁻¹ | < 1e-05 s⁻¹ |
| U47A C50U | < 1e-05 s⁻¹ |  | 5.52e-05 ± 1.2e-05 s⁻¹ |  |  |
